This note sets out measurements from US20030152576A1 (published 2003).

Where only a bound is given, the exact number is not on record here.

B1: biotinylated recombinant HBsAg particles, which only contain S protein (b-rHBsAg) (other)
chain: MENITSGFLGPLLVLQAGFFLLTRILTIPQSLDSWWTSLNFLGGSPVCLGQNSQSPTSNHSPTSCPPICPGYRWMCLRRFIIFLFILLLCLIFLLVLLDYQGMLPVCPLIPGSTTTSTGPCKTCTTPAQGNSMFPSCCCTKPTDGNCTCIPIPSSWAFAKYLWEWASVRFSWLSLLVPFVQWFVGLSPTVWLSAIWMMWYWGPSLYSIVSPFIPLLPIFFCLWVYI
modifications: biotinylated on lysine residues (the three lysine residues which can become biotinylated all lie in the major antigenic region of the S protein; positions 122 and 141 are named)
notes: domain: S protein; Multimeric virus-like particle with lipid; also called biotinylated rHBsAg

The target of one assay is mouse CD14 (mouse) (UniProt P10810). Description: flow cytometry, mCD14-CHO cells, FITC-labelled mAb. Background: Flow cytometry measures light scatter and fluorescence of single cells or particles in a stream.
The next assay has as its target human CD14 (human) (UniProt P08571). Description: flow cytometry, hCD14-CHO cells, FITC-labelled mAb.
In assay [1] the target is T1, human CD14 with amino acids 39, 40, 41, 43 and 44 substituted with alanine (mut6) (human, UniProt P08571 20-345).
T1 construct: whole, on cells; The positions count on the mature protein (add 19 for the precursor entry); also called CD14mut6; CHO-Mut6
T1 sequence (looked up): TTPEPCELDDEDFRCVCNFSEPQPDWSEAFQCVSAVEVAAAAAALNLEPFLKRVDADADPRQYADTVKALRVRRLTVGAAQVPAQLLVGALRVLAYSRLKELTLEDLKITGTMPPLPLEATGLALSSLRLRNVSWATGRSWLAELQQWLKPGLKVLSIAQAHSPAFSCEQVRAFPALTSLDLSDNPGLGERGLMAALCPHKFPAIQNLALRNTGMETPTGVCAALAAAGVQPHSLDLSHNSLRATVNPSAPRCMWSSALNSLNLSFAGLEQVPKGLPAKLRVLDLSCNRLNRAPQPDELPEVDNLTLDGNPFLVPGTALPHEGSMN
Briefly: flow cytometry on CHO cells transfected with mut6, 2% HS-HBSS, Strep-PE.

Assay [2] deals with B1. Description: flow cytometry competition; b-rHBsAg pre-incubated with recombinant sCD14 in 2% HS-HBSS, then binding to monocytes of PBMC.

For orientation: IC50 means the concentration that gives 50% inhibition.

Sequence of mouse CD14 (mouse) (P10810 16-336): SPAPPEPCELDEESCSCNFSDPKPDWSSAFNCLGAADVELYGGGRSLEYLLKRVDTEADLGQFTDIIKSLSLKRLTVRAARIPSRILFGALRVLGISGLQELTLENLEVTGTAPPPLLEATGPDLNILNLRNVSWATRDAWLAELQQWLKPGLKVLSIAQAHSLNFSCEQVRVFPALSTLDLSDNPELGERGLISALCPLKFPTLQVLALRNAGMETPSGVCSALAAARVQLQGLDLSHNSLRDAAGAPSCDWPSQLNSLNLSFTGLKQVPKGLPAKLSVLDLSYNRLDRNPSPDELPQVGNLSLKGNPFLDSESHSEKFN

For the molecule “Rat anti-mouse CD14-FITC (clone rmC5-3, IgG1) (antibody)”, the Median Fluorescence with mouse CD14 (mouse) was found to be 24; with human CD14 (human), 0.
As to “Mouse anti-human CD14 (clone My4) (antibody)”, the Median Fluorescence was 0.12 with mouse CD14 (mouse) and 291 in the assay with human CD14 (human).
“Mouse anti-human CD14 (clone M(P9)) (antibody)”: the Median Fluorescence with mouse CD14 (mouse) was determined as 0; with human CD14 (human), 502.
On to B1, for which the binding result in assay [1] was “no binding”.

B2: recombinant soluble CD14 (receptor)
chain: TTPEPCELDDEDFRCVCNFSEPQPDWSEAFQCVSAVEVEIHAGGLNLEPFLKRVDADADPRQYADTVKALRVRRLTVGAAQVPAQLLVGALRVLAYSRLKELTLEDLKITGTMPPLPLEATGLALSSLRLRNVSWATGRSWLAELQQWLKPGLKVLSIAQAHSPAFSCEQVRAFPALTSLDLSDNPGLGERGLMAALCPHKFPAIQNLALRNTGMETPTGVCAALAAAGVQPHSLDLSHNSLRATVNPSAPRCMWSSALNSLNLSFAGLEQVPKGLPAKLRVLDLSCNRLNRAPQPDELPEVDNLTLDGNPFLVPGTALPHEGSMNSGVVPACARSTLSVGVSGTLVL
notes: also called sCD14; recombinant sCD14
As to B2, the IC50 in assay [2] is above 2.5 µg/mL.
